Key:
C-MabR [1] = biological target: T1, C-MabR (Mycobacterium tuberculosis, UniProt P9WPH5 161-414); assay: ITC; 20 C; 50 mM Tris pH 7.5, 150 mM NaCl; […]; […], room temperature 30 min; ITC: 50 mM Tris pH 7.5, 150 mM NaCl, 20 C; conditions: protein: recombinant; tags: N-terminal 6xHis (pET28a); chain copies: 2; blunt
T1 sequence: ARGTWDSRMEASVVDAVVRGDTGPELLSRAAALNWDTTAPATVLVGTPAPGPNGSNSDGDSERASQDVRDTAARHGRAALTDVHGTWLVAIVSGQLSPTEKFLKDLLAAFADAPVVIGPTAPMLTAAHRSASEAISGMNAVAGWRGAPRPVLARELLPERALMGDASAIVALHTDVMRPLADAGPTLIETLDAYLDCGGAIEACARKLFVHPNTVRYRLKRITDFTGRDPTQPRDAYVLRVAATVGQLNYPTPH

N-MabR = biological target: T2, N-MabR (Mycobacterium tuberculosis, UniProt P9WPH5 1-160); assay: EMSA; up to 20 uM protein; […], room temperature 30 min; ITC: 50 mM Tris pH 7.5, 150 mM NaCl, 20 C; conditions: protein: recombinant; tags: N-terminal 6xHis (pET28a); chain copies: 2; blunt
T2 sequence: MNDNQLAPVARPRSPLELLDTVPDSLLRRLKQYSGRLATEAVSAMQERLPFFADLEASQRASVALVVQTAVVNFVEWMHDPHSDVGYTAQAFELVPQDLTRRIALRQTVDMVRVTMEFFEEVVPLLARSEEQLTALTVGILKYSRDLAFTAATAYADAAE

C-MabR [2] = biological target: T1, C-MabR; assay: TSA (isothermal analysis); 46 C, apparent; […], room temperature 30 min; ITC: 50 mM Tris pH 7.5, 150 mM NaCl, 20 C; conditions: protein: recombinant; tags: N-terminal 6xHis (pET28a); chain copies: 2; blunt
SEC = biological target: the molecule itself; assay: SEC
crystal structure = biological target: the molecule itself; assay: crystal structure

B1: 23-bp FAS-II promoter dsDNA (dsDNA)
DNA 1: GTTTTGTTGGTTATATACAAAAA
DNA 2: TTTTTGTATATAACCAACAAAAC
For B1, the Kd (C-MabR [1]) was 4.3 µM, the binding result (N-MabR) was “no binding” and the Kd (C-MabR [2]) was ~1000 nM.

B2: N-terminal domain of Mycobacterium tuberculosis MabR (Rv2242), residues 1-160 (domain or fragment)
chain: MNDNQLAPVARPRSPLELLDTVPDSLLRRLKQYSGRLATEAVSAMQERLPFFADLEASQRASVALVVQTAVVNFVEWMHDPHSDVGYTAQAFELVPQDLTRRIALRQTVDMVRVTMEFFEEVVPLLARSEEQLTALTVGILKYSRDLAFTAATAYADAAE
B2 was tested, and the “stoichiometry N” value (SEC) was 2.

B3: C-terminal domain of Mycobacterium tuberculosis MabR (Rv2242), residues 161-414 (domain or fragment)
chain: ARGTWDSRMEASVVDAVVRGDTGPELLSRAAALNWDTTAPATVLVGTPAPGPNGSNSDGDSERASQDVRDTAARHGRAALTDVHGTWLVAIVSGQLSPTEKFLKDLLAAFADAPVVIGPTAPMLTAAHRSASEAISGMNAVAGWRGAPRPVLARELLPERALMGDASAIVALHTDVMRPLADAGPTLIETLDAYLDCGGAIEACARKLFVHPNTVRYRLKRITDFTGRDPTQPRDAYVLRVAATVGQLNYPTPH
B3: binds (crystal structure).
